Molecular target: batCoV-SHC014 S-2P (Bat SARS-like coronavirus RsSHC014, UniProt U5WLK5, stabilised)
Assay: ELISA

B1: DH1047, cross-neutralizing RBD antibody (antibody, V domains shown)
VH: QVQLVQSGAEVKKPGASVQVSCQASANTFTNHYIHWVRQAPGQGLEWMGIIYPTGGNTIYAQGFQGRVTMTRDTSLNTIYLELSSLRSEDTAVYYCARDVRVDDSWSGYDLLSGGTYFDYWGQGTLVTVSS
VL: not shown
B1: binds.
